For experiment [1], the target named is T1, FA-J3NCZ, FLAG:HA-tagged JmjN-JmjC-zinc finger region of JMJ703 (amino acids 113 to 700) (rice, UniProt Q53WJ1 113-700).
T1 construct: JMJ703, rice; JmjN-JmjC-zinc finger region between amino acids 113 and 700; the only production of J3NCZ that the methods tell is the FLAG:HA-tagged one from tobacco cells (vector pFA121); source: tobacco leaf cells (Agrobacterium infection), purified with Anti-FLAG M2 magnetic beads
T1 sequence (looked up): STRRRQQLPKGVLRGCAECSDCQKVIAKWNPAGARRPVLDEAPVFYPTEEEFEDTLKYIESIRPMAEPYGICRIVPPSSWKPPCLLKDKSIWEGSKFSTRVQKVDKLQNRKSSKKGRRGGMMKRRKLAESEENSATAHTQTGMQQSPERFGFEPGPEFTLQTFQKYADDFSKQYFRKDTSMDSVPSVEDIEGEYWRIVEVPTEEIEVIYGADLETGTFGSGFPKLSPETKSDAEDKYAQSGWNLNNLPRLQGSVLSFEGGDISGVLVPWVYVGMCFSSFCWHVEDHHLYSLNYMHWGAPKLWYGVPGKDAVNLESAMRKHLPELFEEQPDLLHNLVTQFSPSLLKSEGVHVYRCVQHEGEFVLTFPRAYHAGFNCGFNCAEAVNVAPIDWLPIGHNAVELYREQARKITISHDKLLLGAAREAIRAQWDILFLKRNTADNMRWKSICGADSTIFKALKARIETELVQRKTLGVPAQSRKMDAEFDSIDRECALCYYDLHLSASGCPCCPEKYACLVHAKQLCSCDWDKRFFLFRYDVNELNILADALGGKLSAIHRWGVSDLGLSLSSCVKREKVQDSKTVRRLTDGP
The experiment can be described thus: SPR; J3NCZ (FA-J3NCZ) with different concentrations of peptide; set-up for this protein not told in the methods. Conditions: both partners purified. (In SPR one partner is held on a chip, and binding of the other changes the refractive index at the surface.)

Experiment [2] deals with T2, c-JMJ703, catalytic core domain of JMJ703 (amino acids 139 to 498) (rice, UniProt Q53WJ1 139-498).
T2 construct: JMJ703, rice JmjC domain-containing histone H3K4 demethylase; amino acids 139 to 498, covering the JmjN domain (A139-K199), long beta-hairpin (D200-T271), mixed domain (L272-V377) and JmjC domain (L378-A498); Cloned into pET-28a with BamHI and XhoI; also called J3NC; catalytic core of JMJ703; source: E. coli Rosetta (DE3), purified (Ni-NTA, thrombin cleavage, Hitrap Q anion exchange)
The experiment can be described thus: SPR; BIAcore 3000, 25°C; c-JMJ703 amine-coupled to a CM5 chip; peptides injected at various concentrations at 10 µL/min for 2 min in 10 mM HEPES pH 7.5, 150 mM NaCl, 0.005% Tween20; reference flow cell subtracted. Conditions: both partners purified.

Where no end group is shown, it is not given here. Me3 = trimethyl

B1: H3K4me3 peptide (ARTKme3QTARKS) (peptide)
peptide: ARTK(Me3)QTARKS
Take B1: the Kd (usually the free concentration of one partner at which half of the binding sites on the other are occupied at equilibrium, for simple one-to-one binding) in experiment [1] stood at 15.9 µM; in experiment [2], 30.1 µM.

Values taken from article PMC3554631, “Structural Basis of a Histone H3 Lysine 4 Demethylase Required for Stem Elongation in Rice” (PLoS Genetics, 2013).
